Experimental data reported in article PMC12749748 (2025).

Biological target: VHL (Homo sapiens, UniProt P40337)
Experiment: SPR

Chain of VHL (P40337 whole entry): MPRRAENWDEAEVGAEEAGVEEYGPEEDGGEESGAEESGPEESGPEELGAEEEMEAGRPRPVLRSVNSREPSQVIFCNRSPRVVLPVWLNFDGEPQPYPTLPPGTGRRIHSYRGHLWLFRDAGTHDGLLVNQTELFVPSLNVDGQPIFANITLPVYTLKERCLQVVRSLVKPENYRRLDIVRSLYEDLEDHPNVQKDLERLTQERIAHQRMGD

B1: IRE1 (protein)
chain: IFGSTSTVTLPETLLFVSTLDGSLHAVSKRTGSIKWTLKEDPVLQVPTHVEEPAFLPDPNDGSLYTLGSKNNEGLTKLPFTIPELVQASPCRSSDGILYMGKKQDIWYVIDLLTGEKQQTLSSAFADSLCPSTSLLYLGRTEYTITMYDTKTRELRWNATYFDYAASLPEDDVDYKMSHFVSNGDGLVVTVDSESGDVLWIQNYASPVVAFYVWQREGLRKVMHINVAVETLRYLTFMSGEVGRITKWKYPFPKETEAKSKLTPTLYVGKYSTSLYASPSMVHEGVAVVPRGSTLPLLEGPQTDGVTIGDKGECVITPSTDVKFDPGLKSKNKLNYLRNYWLLIGHHETPLSASTKMLERFPNNLPKHRENVIPADSEKKSFEEVINLVDQTSENAPTTVSRDVEEKPAHAPARPEAPVDSMLKDMATIILSTFLLIGWVAFIITYPLSMHQQQQLQHQQFQKELEKIQLLQQQQQQLPFHPPGDTAQDGELLDTSGPYSESSGTSSPSTSPRASNHSLCSGSSASKAGSSPSLEQDDGDEETSVVIVGKISFCPKDVLGHGAEGTIVYRGMFDNRDVAVKRILPECFSFADREVQLLRESDEHPNVIRYFCTEKDRQFQYIAIELCAATLQEYVEQKDFAHLGLEPITLLQQTTSGLAHLHSLNIVHRDLKPHNILISMPNAHGKIKAMISDFGLCKKLAVGRHSFSRRSGVPGTEGWIAPEMLSEDCKENPTYTVDIFSAGCVFYYVISEGSHPFGKSLQRQANILLGACSLDCLHPEKHEDVIARELIEKMIAMDPQKRPSAKHVLKHPFFWSLEKQLQFFQDVSDRIEKESLDGPIVKQLERGGRAVVKMDWRENITVPLQTDLRKFRTYKGGSVRDLLRAMRNKKHHYRELPAEVRETLGSLPDDFVCYFTSRFPHLLAHTYRAMELCSHERLFQPYYFHEPPEPQPPVTPDAL
Question: For B1, which Kd is on record?
Answer: > 10 µM
